Reference: US20220112250A1

Molecular target: Rat CaV2.2 channel (α1B splice variant e37a, α2δ1 and β3) expressed in HEK293T cells (rat) (UniProt Q02294)
Test: cell-based or functional assay

Chain of UniProt Q02294 (Q02294 other isoform, or with tags, fused parts or gaps mutant, chain 1 of 3): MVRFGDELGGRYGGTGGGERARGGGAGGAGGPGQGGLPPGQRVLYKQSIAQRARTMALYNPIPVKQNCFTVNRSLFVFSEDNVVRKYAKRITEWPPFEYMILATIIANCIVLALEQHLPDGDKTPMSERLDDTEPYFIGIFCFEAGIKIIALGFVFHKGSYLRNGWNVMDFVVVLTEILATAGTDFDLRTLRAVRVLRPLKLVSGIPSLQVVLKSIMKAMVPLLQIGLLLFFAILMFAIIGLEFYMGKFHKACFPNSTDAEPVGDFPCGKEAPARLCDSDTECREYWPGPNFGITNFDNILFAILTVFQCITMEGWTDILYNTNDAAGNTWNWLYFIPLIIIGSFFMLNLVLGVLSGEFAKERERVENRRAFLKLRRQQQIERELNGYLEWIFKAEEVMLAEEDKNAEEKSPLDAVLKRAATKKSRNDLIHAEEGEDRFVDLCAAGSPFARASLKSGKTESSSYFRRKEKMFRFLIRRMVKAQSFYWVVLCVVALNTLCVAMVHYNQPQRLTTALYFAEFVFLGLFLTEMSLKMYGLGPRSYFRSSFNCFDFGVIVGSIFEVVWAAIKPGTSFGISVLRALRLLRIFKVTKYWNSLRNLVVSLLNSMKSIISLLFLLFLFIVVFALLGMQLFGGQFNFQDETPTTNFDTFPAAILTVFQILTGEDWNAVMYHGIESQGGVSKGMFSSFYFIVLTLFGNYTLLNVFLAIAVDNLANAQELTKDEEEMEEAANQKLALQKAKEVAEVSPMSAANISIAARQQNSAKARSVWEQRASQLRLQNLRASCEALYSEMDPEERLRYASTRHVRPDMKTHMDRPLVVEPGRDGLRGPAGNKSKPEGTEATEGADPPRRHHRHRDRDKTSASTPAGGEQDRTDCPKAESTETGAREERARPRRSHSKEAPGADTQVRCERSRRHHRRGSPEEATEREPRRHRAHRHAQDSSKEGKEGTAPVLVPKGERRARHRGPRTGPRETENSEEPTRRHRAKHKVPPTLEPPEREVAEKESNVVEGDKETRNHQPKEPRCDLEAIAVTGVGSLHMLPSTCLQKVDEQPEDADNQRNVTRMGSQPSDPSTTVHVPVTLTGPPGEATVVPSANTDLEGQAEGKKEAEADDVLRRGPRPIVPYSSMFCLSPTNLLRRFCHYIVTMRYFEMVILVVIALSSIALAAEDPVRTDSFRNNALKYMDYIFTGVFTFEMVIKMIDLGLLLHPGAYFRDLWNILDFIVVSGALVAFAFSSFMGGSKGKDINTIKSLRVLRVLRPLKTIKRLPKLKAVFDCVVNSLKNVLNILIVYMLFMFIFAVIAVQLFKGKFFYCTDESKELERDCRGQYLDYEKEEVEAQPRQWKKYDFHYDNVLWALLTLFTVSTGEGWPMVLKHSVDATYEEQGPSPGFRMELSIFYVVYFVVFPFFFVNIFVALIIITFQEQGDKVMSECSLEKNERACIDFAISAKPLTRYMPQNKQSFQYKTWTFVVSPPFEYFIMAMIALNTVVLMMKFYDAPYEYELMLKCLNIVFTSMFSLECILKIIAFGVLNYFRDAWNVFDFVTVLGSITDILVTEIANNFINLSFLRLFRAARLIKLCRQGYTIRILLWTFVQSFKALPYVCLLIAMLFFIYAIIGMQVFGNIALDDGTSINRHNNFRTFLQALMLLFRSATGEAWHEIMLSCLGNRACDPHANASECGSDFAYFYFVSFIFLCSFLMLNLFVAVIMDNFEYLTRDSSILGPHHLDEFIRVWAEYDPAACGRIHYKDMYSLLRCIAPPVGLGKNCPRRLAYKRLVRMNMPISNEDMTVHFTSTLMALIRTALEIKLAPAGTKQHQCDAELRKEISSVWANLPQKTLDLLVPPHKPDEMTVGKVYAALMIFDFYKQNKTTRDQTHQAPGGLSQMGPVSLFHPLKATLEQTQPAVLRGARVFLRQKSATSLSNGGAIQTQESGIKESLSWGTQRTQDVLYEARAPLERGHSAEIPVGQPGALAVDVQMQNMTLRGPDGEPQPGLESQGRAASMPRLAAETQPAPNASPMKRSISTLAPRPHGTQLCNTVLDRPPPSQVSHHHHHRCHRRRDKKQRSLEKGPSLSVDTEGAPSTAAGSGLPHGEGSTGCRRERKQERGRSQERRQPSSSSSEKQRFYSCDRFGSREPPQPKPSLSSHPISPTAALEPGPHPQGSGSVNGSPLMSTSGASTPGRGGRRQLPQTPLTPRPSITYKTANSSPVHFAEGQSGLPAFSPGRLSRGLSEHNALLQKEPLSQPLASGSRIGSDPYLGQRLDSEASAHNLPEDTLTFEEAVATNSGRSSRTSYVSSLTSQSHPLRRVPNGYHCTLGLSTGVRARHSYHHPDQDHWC
Chain of UniProt Q02294 (P54290 25-1091, stated change not applied, chain 2 of 3, further chain): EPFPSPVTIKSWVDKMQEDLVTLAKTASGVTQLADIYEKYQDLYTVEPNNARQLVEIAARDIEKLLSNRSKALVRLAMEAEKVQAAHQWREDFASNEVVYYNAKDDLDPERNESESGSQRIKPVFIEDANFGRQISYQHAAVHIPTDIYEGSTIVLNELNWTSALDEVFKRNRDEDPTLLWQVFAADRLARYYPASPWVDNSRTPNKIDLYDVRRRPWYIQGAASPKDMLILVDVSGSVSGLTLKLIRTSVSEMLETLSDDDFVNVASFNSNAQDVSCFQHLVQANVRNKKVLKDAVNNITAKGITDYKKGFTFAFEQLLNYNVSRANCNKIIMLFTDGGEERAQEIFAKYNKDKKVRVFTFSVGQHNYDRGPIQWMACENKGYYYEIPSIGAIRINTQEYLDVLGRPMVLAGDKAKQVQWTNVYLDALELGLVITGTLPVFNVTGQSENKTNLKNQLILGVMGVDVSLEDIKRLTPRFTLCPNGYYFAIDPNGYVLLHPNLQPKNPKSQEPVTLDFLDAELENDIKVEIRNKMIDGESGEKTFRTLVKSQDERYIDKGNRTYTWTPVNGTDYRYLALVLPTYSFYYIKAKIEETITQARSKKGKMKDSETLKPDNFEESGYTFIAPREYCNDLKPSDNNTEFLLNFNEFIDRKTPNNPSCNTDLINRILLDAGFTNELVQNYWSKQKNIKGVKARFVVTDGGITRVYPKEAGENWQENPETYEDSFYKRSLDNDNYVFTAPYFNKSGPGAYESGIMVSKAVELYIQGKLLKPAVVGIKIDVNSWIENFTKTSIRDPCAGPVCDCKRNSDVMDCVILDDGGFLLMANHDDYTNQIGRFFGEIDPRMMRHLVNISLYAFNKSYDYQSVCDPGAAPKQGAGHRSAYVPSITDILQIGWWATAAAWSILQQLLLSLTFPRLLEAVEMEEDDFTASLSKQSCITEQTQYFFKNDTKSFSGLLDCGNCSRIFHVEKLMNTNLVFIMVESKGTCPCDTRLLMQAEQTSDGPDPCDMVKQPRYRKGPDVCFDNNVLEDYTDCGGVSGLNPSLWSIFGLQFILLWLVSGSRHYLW
Chain of UniProt Q02294 (P54287 whole entry, stated change not applied, chain 3 of 3, further chain, canonical isoform): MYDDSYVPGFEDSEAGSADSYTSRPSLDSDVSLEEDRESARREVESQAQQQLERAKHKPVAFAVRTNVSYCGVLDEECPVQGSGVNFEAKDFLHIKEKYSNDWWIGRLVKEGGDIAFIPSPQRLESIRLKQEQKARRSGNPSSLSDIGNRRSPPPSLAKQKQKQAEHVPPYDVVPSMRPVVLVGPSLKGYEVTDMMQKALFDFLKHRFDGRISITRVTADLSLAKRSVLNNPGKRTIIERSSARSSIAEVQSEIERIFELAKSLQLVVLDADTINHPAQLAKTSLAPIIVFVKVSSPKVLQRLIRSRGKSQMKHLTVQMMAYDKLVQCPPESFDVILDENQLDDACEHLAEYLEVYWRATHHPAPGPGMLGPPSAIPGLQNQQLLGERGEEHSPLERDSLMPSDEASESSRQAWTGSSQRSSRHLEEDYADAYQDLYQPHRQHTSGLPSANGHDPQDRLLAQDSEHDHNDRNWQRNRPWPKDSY

MVIIA (ziconotide) (peptide)
half inhibitory concentration of CaV2.2 channel current: 0.0436 µM
